This assay has as its target free UbcH8 (Ube2L6), GST tag removed (human). Nature of the assay: SAXS; free UbcH8 (GST removed) at 300 μM, 10 °C, six 10-min frames; dimer crystal structure 1WZV fitted to the dummy atom model.

In the case of “free UbcH8 (Ube2L6), GST tag removed (enzyme)”, the stoichiometry N (as a rule, a count of units in the complex or per binding partner) is 2.

For the origin of these results see PMC11425648.
